From patent US20170232076A1 (SHIRE HUMAN GENETIC THERAPIES, published 2017) come the findings set out here.

The target in assay [1] is T1, cation-independent mannose-6-phosphate receptor (CI-M6PR), as used in the in vitro receptor binding assay …. The assay can be described thus: in vitro CI-M6PR binding assay.
For assay [2], the target named is cation-independent mannose-6-phosphate receptor (CI-M6PR) on cells overexpressing CI-M6PR. Description: cellular uptake assay on cells overexpressing CI-M6PR, intracellular Naglu activity read-out.
Assay [3] deals with T1, cation-independent mannose-6-phosphate …. The assay can be described thus: ELISA, CI-M6PR binding, detection with antibody to human Naglu.

B1: Naglu-IGFII fusion protein (produced in HT-1080 cells) (enzyme)
chain: DEAREAAAVRALVARLLGPGPAADFSVSVERALAAKPGLDTYSLGGGGAARVRVRGSTGVAAAAGLHRYLRDFCGCHVAWSGSQLRLPRPLPAVPGELTEATPNRYRYYQNVCTQSYSFVWWDWARWEREIDWMALNGINLALAWSGQEAIWQRVYLALGLTQAEINEFFTGPAFLAWGRMGNLHTWDGPLPPSWHIKQLYLQHRVLDQMRSFGMTPVLPAFAGHVPEAVTRVFPQVNVTKMGSWGHFNCSYSCSFLLAPEDPIFPIIGSLFLRELIKEFGTDHIYGADTFNEMQPPSSEPSYLAAATTAVYEAMTAVDTEAVWLLQGWLFQHQPQFWGPAQIRAVLGAVPRGRLLVLDLFAESQPVYTRTASFQGQPFIWCMLHNFGGNHGLFGALEAVNGGPEAARLFPNSTMVGTGMAPEGISQNEVVYSLMAELGWRKDPVPDLAAWVTSFAARRYGVSHPDAGAAWRLLLRSVYNCSGEACRGHNRSPLVRRPSLQMNTSIWYNRSDVFEAWRLLLTSAPSLATSPAFRYDLLDLTRQAVQELVSLYYEEARSAYLSKELASLLRAGGVLAYELLPALDEVLASDSRFLLGSWLEQARAAAVSEAEADFYEQNSRYQLTLWGPEGNILDYANKQLAGLVANYYTPRWRLFLEALVDSVAQGIPFQQHQFDKNVFQLEQAFVLSKQRYPSQPRGDTVDLAKKIFLKYYPRWVAGSWGAPGGGGGAAAAAGGGGGGAPGGGGGAAAAAGGGGGGAPGGGGGAAAAAGGGGGGAPLCGGELVDTLQFVCGDRGFYFSRPASRVSRRSRGIVEECCFRSCDLALLETYCATPAKSE
notes: Purified from conditioned medium
Usually Kd stands for the constant that tells how readily two partners part at equilibrium. Read a low Kd as tighter binding. Consider B1, for which the results for the Kd in assay [1] and in assay [3] were 0.24 nM and about 0.21 nM, respectively. Further, the “fold higher affinity than Naglu-SapDC produced in GNPT overexpressing cells” value in assay [2] was 3.6 fold.

B2: Naglu-LIF fusion protein (produced in HT-1080 cells) (enzyme)
chain: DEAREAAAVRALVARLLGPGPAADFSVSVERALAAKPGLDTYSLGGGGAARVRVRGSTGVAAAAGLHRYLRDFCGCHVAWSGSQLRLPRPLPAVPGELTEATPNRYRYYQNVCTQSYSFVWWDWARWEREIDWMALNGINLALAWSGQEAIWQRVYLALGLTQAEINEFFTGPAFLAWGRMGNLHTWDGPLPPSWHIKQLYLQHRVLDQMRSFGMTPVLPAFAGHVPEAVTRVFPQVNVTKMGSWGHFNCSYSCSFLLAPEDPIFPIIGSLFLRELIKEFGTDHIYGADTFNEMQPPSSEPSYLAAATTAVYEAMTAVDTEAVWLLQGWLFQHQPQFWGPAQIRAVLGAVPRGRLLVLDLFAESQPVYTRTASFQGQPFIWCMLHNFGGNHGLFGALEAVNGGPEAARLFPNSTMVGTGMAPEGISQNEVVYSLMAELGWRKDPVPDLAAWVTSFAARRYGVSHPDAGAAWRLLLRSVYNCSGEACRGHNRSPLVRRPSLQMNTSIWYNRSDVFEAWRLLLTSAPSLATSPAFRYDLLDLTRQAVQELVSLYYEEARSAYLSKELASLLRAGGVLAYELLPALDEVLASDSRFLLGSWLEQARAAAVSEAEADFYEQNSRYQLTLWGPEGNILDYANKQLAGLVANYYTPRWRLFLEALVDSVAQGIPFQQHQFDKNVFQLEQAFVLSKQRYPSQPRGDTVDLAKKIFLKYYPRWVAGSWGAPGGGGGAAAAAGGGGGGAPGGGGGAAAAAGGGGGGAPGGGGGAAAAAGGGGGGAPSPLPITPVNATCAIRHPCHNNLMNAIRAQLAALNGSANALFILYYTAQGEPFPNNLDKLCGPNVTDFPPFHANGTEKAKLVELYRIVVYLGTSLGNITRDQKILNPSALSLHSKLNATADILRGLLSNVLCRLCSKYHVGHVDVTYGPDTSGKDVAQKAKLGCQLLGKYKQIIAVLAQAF
modifications: N-linked glycosylation sites in the LIF part marked (N); by anti-M6P Western blot not M6P-phosphorylated in any detectable manner when overexpressed alone
Turning to B2, binding in assay [3] was characterised by a dissociation constant (Kd) of 32.4 nM.

B3: recombinant human Naglu (rhNaglu) produced in HT-1080 cells overexpressing GNPT (enzyme)
chain: DEAREAAAVRALVARLLGPGPAADFSVSVERALAAKPGLDTYSLGGGGAARVRVRGSTGVAAAAGLHRYLRDFCGCHVAWSGSQLRLPRPLPAVPGELTEATPNRYRYYQNVCTQSYSFVWWDWARWEREIDWMALNGINLALAWSGQEAIWQRVYLALGLTQAEINEFFTGPAFLAWGRMGNLHTWDGPLPPSWHIKQLYLQHRVLDQMRSFGMTPVLPAFAGHVPEAVTRVFPQVNVTKMGSWGHFNCSYSCSFLLAPEDPIFPIIGSLFLRELIKEFGTDHIYGADTFNEMQPPSSEPSYLAAATTAVYEAMTAVDTEAVWLLQGWLFQHQPQFWGPAQIRAVLGAVPRGRLLVLDLFAESQPVYTRTASFQGQPFIWCMLHNFGGNHGLFGALEAVNGGPEAARLFPNSTMVGTGMAPEGISQNEVVYSLMAELGWRKDPVPDLAAWVTSFAARRYGVSHPDAGAAWRLLLRSVYNCSGEACRGHNRSPLVRRPSLQMNTSIWYNRSDVFEAWRLLLTSAPSLATSPAFRYDLLDLTRQAVQELVSLYYEEARSAYLSKELASLLRAGGVLAYELLPALDEVLASDSRFLLGSWLEQARAAAVSEAEADFYEQNSRYQLTLWGPEGNILDYANKQLAGLVANYYTPRWRLFLEALVDSVAQGIPFQQHQFDKNVFQLEQAFVLSKQRYPSQPRGDTVDLAKKIFLKYYPRWVAGSW
modifications: M6P on N-linked glycans enhanced by co-expression with GNPT
notes: Same polypeptide as rhNaglu; It differs in being co-expressed with GNPT; also called GNPT/rhNaglu; rhNaglu produced using a GNPT overexpressing cell line
B3: in assay [1], the Kd was about 65 nM.
